{
  "source": "patent US20250027901A1",
  "target": "Maleimide-modified SpyTag peptide (MCA-SpyTag)",
  "experiment": "QCMD, nanobody-SpyCatcher coupling to maleimide-SpyTag peptide on HDT SAM",
  "data": [
    {"substance": "VHH72-8 aa-spyCatcher-3C cleavage site-His8", "values": [
      {"measurement": "Density per cm^2", "value": "6.5e+12", "unit": "per cm^2"},
      {"measurement": "gained mass (ng/cm^2)", "value": 313, "unit": "ng/cm^2"}
    ]}
  ]
}
